Data published in article doi:10.1101/676627 (bioRxiv, 2019).
Substitutions are numbered along the chain they refer to. Names may count otherwise.

B1: ROCext surface engineered mutant (KA), K1460A and K1463A (domain or fragment, human, UniProt Q5S007 1329-1520, looked up)
chain: AVPYNRMKLMIVGNTGSGKTTLLQQLMKTKKSDLGMQSATVGIDVKDWPIQIRDKRKRDLVLNVWDFAGREEFYSTHPHFMTQRALYLAVYDLSKGQAEVDAMKPWLFNIKARASSSPVILVGTHLDVSDEAQRAACMSKITKELLNKRGFPAIRDYHFVNATEESDALAKLRKTIINESLNFKIRDQLVVG
B2: ROCext, wild-type GTPase (ROC) domain of human LRRK2, residues 1329-1520 (domain or fragment, UniProt Q5S007 1329-1520, looked up)
chain: B1 chain with A132K, A135K

Experiments:
[1] = molecular target: the molecule itself; test: crystal structure
[2] = molecular target: the molecule itself; test: SEC-MALS

| Protein | stoichiometry N [1] | stoichiometry N [2] |
| --- | --- | --- |
| B1 | 2 | – |
| B2 | – | 2 |
